Reference: patent US20060251652A1 (APPLIED MOLECULAR EVOLUTION, published 2006)

Target: T1, human CD20 (human, UniProt P11836 1-297)
T1 construct: whole, on cells; Always presented on cells (fixed Ramos cells in ELISA; live cells in flow cytometry and KinExA-type assays); also called hCD20; Bp35
T1 sequence (looked up): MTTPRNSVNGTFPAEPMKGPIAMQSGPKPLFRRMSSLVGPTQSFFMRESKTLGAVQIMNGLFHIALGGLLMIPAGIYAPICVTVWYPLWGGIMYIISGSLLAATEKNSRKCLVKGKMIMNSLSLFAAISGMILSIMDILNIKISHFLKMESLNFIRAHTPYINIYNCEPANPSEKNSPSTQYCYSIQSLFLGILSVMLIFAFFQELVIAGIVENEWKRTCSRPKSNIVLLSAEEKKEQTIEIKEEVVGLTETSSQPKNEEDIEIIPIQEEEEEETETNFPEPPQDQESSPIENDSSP
Experiment: ELISA on formalin-fixed Ramos cells, off-rate format: after the Fab incubation the plate stood overnight in PBS/BSA before anti-His6 peroxidase, OD 450
Procedure: Ramos cells (ATCC) were grown in RPMI 1640 containing 10% heat inactivated Fetal Bovine Serum. […] Media was gently aspirated and […] of aqueous buffered zinc formalin (Anatech, Ltd.) was added to each well for 15 minutes at room temperature. Z-fix was removed and the plate was washed with phosphate-buffered saline (PBS) containing 0.05% Tween 20. The plate was blocked for 1 hour with 1% bovine serum albumin (BSA) in PBS. Dilutions of Fab or IgG were incubated with the fixed and blocked Ramos cells for 1 hour at room temperature. The plate was washed 3× with PBS 0.05% Tween […] of anti-His6 Peroxidase Mouse Monoclonal Antibody (Roche Diagnostics Corporation) at a 1:500 dilution were added to the wells and incubated 1 hour at room temperature. The plate was washed as above and developed with tetramethyl benzidine, and the reaction was stopped with 5N H₂SO₄. The plate absorbance was read at OD 450 nm. Dilutions of Fab and conjugate were in 1% BSA/PBS.
IgG assays were performed similarly except IgG bound was detected with goat anti-human IgG-HRP. To compare antibody off-rate, after incubation with Fab or IgG the plates were incubated over night in PBS/BSA, before proceeding with the second antibody step. To compare antibody on-rate, incubation steps for Fab/IgG binding and with the second antibody were both of 5 minutes duration.

EC50 (read off the curve): ~0.3 µg/mL
B1: AME 33 Fab (Fab, V domains shown)
VH: EVQLVQSGAEVKKPGESLKISCKGSGRTFTSYNMHWVRQMPGKGLEWMGAIYPLTGDTSYNQKSKLQVTISADKSISTAYLQWSSLKASDTAMYYCARSTYVGGDWQFDVWGKGTTVTVSS
VL: EIVLTQSPGTLSLSPGERATLSCRASSSVPYIHWYQQKPGQAPRLLIYATSALASGIPDRFSGSGSGTDFTLTISRLEPEDFAVYYCQQWLSNPPTFGQGTKLEIK
notes: Fab
